B1: Myc-tagged ZDHHC17 ANK (1-7) [human] / Flag-MAP2K4 [human] (parent complex)
chain 1: THIDDYSTWDIVKATQYGIYERCRELVEAGYDVRQPDKENVTLLHWAAINNRIDLVKYYISKGAIVDQLGGDLNSTPLHWATRQGHLSMVVQLMKYGADPSLIDGEGCSCIHLAAQFGHTSIVAYLIAKGQDVDMMDQNGMTPLMWAAYRTHSVDPTRLLLTFNVSVNLGDKYHKNTALHWAVLAGNTTVISLLLEAGANVDAQNIKGESALDLAKQRKNVWMINHLQEARQAKGYDN
chain 2: MAAPSPSGGGGSGGGSGSGTPGPVGSPAPGHPAVSSMQGKRKALKLNFANPPFKSTARFTLNPNPTGVQNPHIERLRTHSIESSGKLKISPEQHWDFTAEDLKDLGEIGRGAYGSVNKMVHKPSGQIMAVKRIRSTVDEKEQKQLLMDLDVVMRSSDCPYIVQFYGALFREGDCWICMELMSTSFDKFYKYVYSVLDDVIPEEILGKITLATVKALNHLKENLKIIHRDIKPSNILLDRSGNIKLCDFGISGQLVDSIAKTRDAGCRPYMAPERIDPSASRQGYDVRSDVWSLGITLYELATGRFPYPKWNSVFDQLTQVVKGDPPQLSNSEEREFSPSFINFVNLCLTKDESKRPKYKELLKHPFILMYEERAVEVACYVCKILDQMPATPSSPMYVD

These results are taken from PMC6956818, “Activation of JNK and p38 MAPK Mediated by ZDHHC17 Drives Glioblastoma Multiforme Development and Malignant Progression” (Theranostics, 2020).

In the assay the parent is B1. As to the kind of experiment: co-immunoprecipitation, quantified immunoblot; HEK293 cell lysates; parent: 1; read off a plot.
For the variant chain 1 THIDDYSTWDIVKATQYGIYERCRELVEAGYDVRQPDKENVTLLHWAAINNRIDLVKYYISKGAIVDQLGGDLNSTPLHWATGQGHLSMVVQLMKYGADPSLIDGEGCSCIHLAAQFGHTSIVAYLIAKGQDVDMMDQNGMTPLMWAAYGTHSVDPTRLLLTFNVSVNLGDKYHKNTALHWAVLAGNTTVISLLLEAGANVDAQNIKGESALDLAKQRKNVWMINHLQEARQAKGYDN [chain 1 R83G, chain 1 R150G], the ratio to parent is around 0.75.

For the variant chain 1 THIDDYSTWDIVKATQYGIYERCRELVEAGYDVRQPDKENVTLLHWAAINNRIDLVKYYISKGAIVDQLGGDLNSTPLHWATRGGHLSMVVQLMKYGADPSLIDGEGCSCIHLAAQFGHTSIVAYLIAKGQDVDMMDQNGMTPLMWAAYRTHSVDPTRLLLTFNVSVNLGDKYHKNTALHWAVLAGNTTVISLLLEAGANVDAQNIKGESALDLAKQRKNVWMINHLQEARQAKGYDN [chain 1 Q84G], the ratio to parent was around 0.85.

For the variant chain 1 THIDDYSTWDIVKATQGGIYERCRELVEAGYDVRQPDKENVTLLHWAAINNRIDLVKYYISKGAIVDQLGGDLNSTPLHWATRQGHLSMVVQLMKYGADPSLIDGEGCSCIHLAAQFGHTSIVAYLIAKGQDVDMMDQNGMTPLMWAAYRTHSVDPTRLLLTFNVSVNLGDKYHKNTALHWAVLAGNTTVISLLLEAGANVDAQNIKGESALDLAKQRKNVWMINHLQEARQAKGYDN [chain 1 Y17G], the ratio to parent is around 0.33.

For the variant chain 1 THIDDGSTWDIVKATQYGIYERCRELVEAGYDVRQPDKENVTLLHWAAINNRIDLVKYYISKGAIVDQLGGDLNSTPLHWATRQGHLSMVVQLMKYGADPSLIDGEGCSCIHLAAQFGHTSIVAYLIAKGQDVDMMDQNGMTPLMWAAYRTHSVDPTRLLLTFNVSVNLGDKYHKNTALHWAVLAGNTTVISLLLEAGANVDAQNIKGESALDLAKQRKNVWMINHLQEARQAKGYDN [chain 1 Y6G], the ratio to parent was around 0.35.

Turning to chain 1 THIGDYSTWDIVKATQYGIYERCRELVEAGYDVRQPDKENVTLLHWAAINNRIDLVKYYISKGAIVDQLGGDLNSTPLHWATRQGHLSMVVQLMKYGADPSLIDGEGCSCIHLAAQFGHTSIVAYLIAKGQDVDMMDQNGMTPLMWAAYRTHSVDPTRLLLTFNVSVNLGDKYHKNTALHWAVLAGNTTVISLLLEAGANVDAQNIKGESALDLAKQRKNVWMINHLQEARQAKGYDN [chain 1 D4G], the ratio to parent was around 0.43.

Regarding chain 1 THIDDYSTWDIVKATQYGIYERCRELVEAGYDVRQPDKENVTLLHWAAINNRIDLVKYYISKGAIVDQLGGDLNSTPLHGATRQGHLSMVVQLMKYGADPSLIDGEGCSCIHLAAQGGHTSIVAYLIAKGQDVDMMDQNGMTPLMWAAYRTHSVDPTRLLLTFNVSVNLGDKYHKNTALHWAVLAGNTTVISLLLEAGANVDAQNIKGESALDLAKQRKNVWMINHLQEARQAKGYDN [chain 1 W80G, chain 1 F117G], the ratio to parent was around 0.42.

Turning to chain 1 THIDGYSTWDIVKATQYGIYERCRELVEAGYDVRQPDKENVTLLHWAAINNRIDLVKYYISKGAIVDQLGGDLNSTPLHWATRQGHLSMVVQLMKYGADPSLIDGEGCSCIHLAAQFGHTSIVAYLIAKGQDVDMMDQNGMTPLMWAAYRTHSVDPTRLLLTFNVSVNLGDKYHKNTALHWAVLAGNTTVISLLLEAGANVDAQNIKGESALDLAKQRKNVWMINHLQEARQAKGYDN [chain 1 D5G], the ratio to parent was around 0.75.

Take chain 1 THIDDYSTWDIVKATQYGIYERCRELVEAGYDVRQPDKENVTLLHWAAINNGIDLVKYYISKGAIVDQLGGDLNSTPLHWATRQGHLSMVVQLMKYGADPSLIDGEGCSCIHLAAQFGHTSIVAYLIAKGQDVDMMDQNGMTPLMWAAYRTHSVDPTRLLLTFNVSVNLGDKYHKNTALHWAVLAGNTTVISLLLEAGANVDAQNIKGESALDLAKQRKNVWMINHLQEARQAKGYDN [chain 1 R52G]: the ratio to parent was around 0.35.
